Measurements: article PMC9279936

Key:
[1] = test system: influenza A virus hemagglutinin (on whole virus particles) (Influenza A virus (strain not in the material)); assay: BLI; conditions: BLI: 10 mM Tris-HCl pH 7.5, 140 mM NaCl, 10 mM KCl ([…], temperature not stated; cited from earlier work
[2] = test system: influenza A virus hemagglutinin (on whole virus particles) (Influenza A virus (strain not in the material)); assay: BLI; conditions: BLI: 10 mM Tris-HCl pH 7.5, 140 mM NaCl, 10 mM KCl ([…], temperature not stated

TTGGGGTTATTTTGGGAGGGCGGGGGTT [RHA0385 (biotinylated)]
Kd [1]: 50 pM
Kd [2]: 1100 pM
